From patent US20210087288A1 (Genentech, published 2021)
Positions count from the first letter of the chain named. In names and notes the source's numbering stands. Several values for one entry are separate records, joined by “and”; a condition that tells them apart may be missing. Equal values may be shown once.

Experiments:
[1] = target: T1, Cyno TfR extracellular domain (analogous ecd construct) (cynomolgus monkey, UniProt Q5RDH6 87-760 (Pongo abelii entry)); experiment: SPR (Biacore), IgG, TfR captured by anti-His
T1 construct: it is not expressly said to be the cyno construct; also called purified cyno TfR
T1 chain: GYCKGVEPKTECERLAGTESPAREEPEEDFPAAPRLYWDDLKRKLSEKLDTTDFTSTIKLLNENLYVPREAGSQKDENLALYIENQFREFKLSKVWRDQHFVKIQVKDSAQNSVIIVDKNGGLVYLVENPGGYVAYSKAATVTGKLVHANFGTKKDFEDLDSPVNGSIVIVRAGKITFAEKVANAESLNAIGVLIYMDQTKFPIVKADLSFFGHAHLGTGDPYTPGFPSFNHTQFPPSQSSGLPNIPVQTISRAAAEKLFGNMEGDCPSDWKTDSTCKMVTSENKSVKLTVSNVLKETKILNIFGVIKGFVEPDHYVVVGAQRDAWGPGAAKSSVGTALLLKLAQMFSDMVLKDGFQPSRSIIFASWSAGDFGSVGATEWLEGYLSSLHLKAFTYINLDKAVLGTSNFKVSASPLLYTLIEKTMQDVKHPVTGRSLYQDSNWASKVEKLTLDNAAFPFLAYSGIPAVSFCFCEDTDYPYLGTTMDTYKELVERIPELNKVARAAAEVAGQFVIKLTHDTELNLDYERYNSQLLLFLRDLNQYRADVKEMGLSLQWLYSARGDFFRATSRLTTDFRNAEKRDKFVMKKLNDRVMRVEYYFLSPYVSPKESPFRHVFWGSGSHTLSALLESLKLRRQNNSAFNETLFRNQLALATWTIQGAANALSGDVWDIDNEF
Experimental: (§1) Antibody affinities were measured using surface plasmon resonance (“SPR”) (Biacore™ GE Healthcare). Anti-His antibody (Qiagen) was coupled onto four different flow cells of a BIACORE™ CM5 sensor chip (Biacore, Inc., Piscataway, N.J.) at between 6000 and 8000 RU. Immobilization was achieved by random coupling through amino groups using a protocol provided by the manufacturer. 10×HBS-P (Biacore, Inc., Piscataway, N.J.) was diluted in water and served as the dilution and running buffer. Purified human or cyno TfR was captured, followed by a 3-fold dilution series of IgG or Fab that was injected at a flow rate of […] using the single cycle kinetics method. Affinity constants were determined using a simple 1:1 Langmuir binding model or using a steady state model when kₒₙ or koff was beyond the detection limit. The equilibrium dissociation constant (KD) was calculated as the ratio of […].
(§2) The affinity of humanized variants for human and cyno TfR was determined by SPR as IgG (FIG. 4E). Selected clones were also analyzed by SPR as Fab to assess monovalent affinity (Table 7). In both cases, the SPR experiments were performed as described above.

[2] = target: T2, Human TfR extracellular domain (ecd) containing an N-terminal His tag (human, UniProt P02786 89-760); experiment: SPR (Biacore), IgG, TfR captured by anti-His
T2 construct: Biotinylated in some ELISAs; also called huTfR; HuTfR
Experimental: as §1, §2

[3] = target: T1, Cyno TfR extracellular domain …; experiment: SPR, captured His-TfR, Fab analyte
Experimental: as §1, §2

[4] = target: T2, Human TfR extracellular domain (ecd) …; experiment: SPR, captured His-TfR, Fab analyte
Experimental: as §1, §2

[5] = target: T1, Cyno TfR extracellular domain …; experiment: ratio of KD on cyno TfR to KD on human TfR, SPR
Experimental: as §1, §2

B1: hu7A4.v5 (antibody, V domains shown)
VH: EVQLVQSGAEVKKPGASVKVSCKASGYTFTDYAMHWVRQAPGQGLEWMGGISTYFGRTNYNQKFKGRVTMTRDTSISTAYMELSRLRSDDTAVYYCARGLSGNYVMDYWGQGTTVTVSS
VL: DIVMTQSPDSLAVSLGERATINCRASESVDSYGNSFMHWYQQKPGQPPKLLIYRASNLESGIPDRFSGSGSGTDFTLTISSLQAEDVAVYYCQQSNEGPPTFGQGTKLEIK
Work on B1 yielded a Kd [1] of 1.2 nM.

B2: hu7A4.v8 (antibody, V domains shown)
VH: B1 VH with A24G, R72V
VL: B1 VL
B2 showed a Kd [1] of 12.3 nM.

B3: hu16F6.v2 (antibody, V domains shown)
VH: EVQLVESGPGLVKPSETLSLTCTVSGNSITSEYAWNWIRQPPGKGLEWIGYISYSGTTSYNPSLKSRVTISRDTSKNQLSLKLSSVTAADTAVYYCARYGYGNPATRYFDVWGQGTLVTVSS
VL: DIQMTQSPSSLSASVGDRVTITCRASKSISKYLAWYQQKPGKAPKLLLYSGSTLQSGVPSRFSGSGSGTDYTLTISSLQPEDFATYYCQQHNEYPWTFGQGTKVEIK
With B3 the Kd [1] was 68.1 nM and the Kd [2] was 4.25 nM.

B4: Hu15G11.HC32A Fab (Fab, V domains shown)
VH: EVQLVQSGAEVKKPGASVKVSCKASGYTFTSAWMHWVRQAPGQRLEWIGEINPTNGRTNYIEKFKSRATLTVDKSASTAYMELSSLRSEDTAVYYCARGTRAYHYWGQGTMVTVSS
VL: DIQMTQSPSSLSASVGDRVTITCRASDNLYSNLAWYQQKPGKSPKLLVYDATNLADGVPSRFSGSGSGTDYTLTISSLQPEDFATYYCQHFWGTPLTFGQGTKVEIK
notes: Purified Fab; also called Y32A Fab
With B4 the koff [3] was 0.00851 s⁻¹, the kon [3] was 177000 M⁻¹ s⁻¹ and the koff [4] was 0.00178 s⁻¹. The kon [4] was 238000 M⁻¹ s⁻¹ and the Cy/hu ratio [5] was 6.4.

B5: Hu15G11.HC52A Fab (Fab, V domains shown)
VH: B4 VH with A32Y, N52A
VL: B4 VL
notes: Purified Fab; also called N52A Fab
In the case of B5, the koff [3] is reported as 0.0567 s⁻¹, the kon [3] is reported as 487000 M⁻¹ s⁻¹ and the koff [4] is reported as 0.0236 s⁻¹ and 0.0196 s⁻¹. The kon [4] was 530000 M⁻¹ s⁻¹ and 564000 M⁻¹ s⁻¹ and the Cy/hu ratio [5] was 2.6.
